In patent US7871610B2, “Antibodies to Tie1 ectodomain” (Dyax Corp., priority 2003, dated 2011):

Experiments:
Tie1 = Tie1 (Homo sapiens, UniProt P35590); assay: Immunofluorescence staining of Tie1-transfected COS1 cells; format: binding; details: COS1 cells transfected with pcDNA3-Tie1-V5; antibodies 5 μg/ml
Procedure: COS1 cells on the glass coverslips were transiently transfected with pcDNA3-Tie1-V5 (the V5-epitope was added to the 3′ terminus of pcDNA3-Tie1) (1 μg DNA per 10 cm cell culture plate) using FUGENE™ 6 (Roche) according to manufacturer's instruction and incubated for 48 h before staining. Cells were fixed in 4% paraformaldehyde for 10 min at 4° C. If required, the cells were permeabilized with 0.2% Triton X-100 in PBS for 5 min. Unspecific binding sites were blocked by incubation with 1% BSA in PBS for 30 min. The cells were then stained with anti-Tie1 antibodies (5 μg/ml) and anti-V5 antibodies for 1 h at room temperature, followed by incubation with FITC— conjugated anti-human antibodies (DAKO, 40 μg/ml) and TRITC-conjugated anti-mouse antibodies (DAKO, 15 μg/ml) for 30 min. Hoechst 33258 fluorochrome (Sigma, 0.5 μg/ml) was used for the staining of the nuclei.

[1] = biological target: T1, Tie1-EpoR chimeric receptor (UniProt P14753+P35590); assay: Ba/F3 bioassay (Tie1/EpoR chimeric BaF3 cell assay), MTT viability; format: cell-based, human; details: 100 ng/ml E3 IgG together with 100 (1:1) or 500 (1:5) ng/ml of the other antibody
T1 construct: the PCR amplified extracellular part of human Tie1 (bp 37-2316 of X60975); expressed in transfected cells
T1 sequence (P35590+P14753 with tags, fused parts or gaps): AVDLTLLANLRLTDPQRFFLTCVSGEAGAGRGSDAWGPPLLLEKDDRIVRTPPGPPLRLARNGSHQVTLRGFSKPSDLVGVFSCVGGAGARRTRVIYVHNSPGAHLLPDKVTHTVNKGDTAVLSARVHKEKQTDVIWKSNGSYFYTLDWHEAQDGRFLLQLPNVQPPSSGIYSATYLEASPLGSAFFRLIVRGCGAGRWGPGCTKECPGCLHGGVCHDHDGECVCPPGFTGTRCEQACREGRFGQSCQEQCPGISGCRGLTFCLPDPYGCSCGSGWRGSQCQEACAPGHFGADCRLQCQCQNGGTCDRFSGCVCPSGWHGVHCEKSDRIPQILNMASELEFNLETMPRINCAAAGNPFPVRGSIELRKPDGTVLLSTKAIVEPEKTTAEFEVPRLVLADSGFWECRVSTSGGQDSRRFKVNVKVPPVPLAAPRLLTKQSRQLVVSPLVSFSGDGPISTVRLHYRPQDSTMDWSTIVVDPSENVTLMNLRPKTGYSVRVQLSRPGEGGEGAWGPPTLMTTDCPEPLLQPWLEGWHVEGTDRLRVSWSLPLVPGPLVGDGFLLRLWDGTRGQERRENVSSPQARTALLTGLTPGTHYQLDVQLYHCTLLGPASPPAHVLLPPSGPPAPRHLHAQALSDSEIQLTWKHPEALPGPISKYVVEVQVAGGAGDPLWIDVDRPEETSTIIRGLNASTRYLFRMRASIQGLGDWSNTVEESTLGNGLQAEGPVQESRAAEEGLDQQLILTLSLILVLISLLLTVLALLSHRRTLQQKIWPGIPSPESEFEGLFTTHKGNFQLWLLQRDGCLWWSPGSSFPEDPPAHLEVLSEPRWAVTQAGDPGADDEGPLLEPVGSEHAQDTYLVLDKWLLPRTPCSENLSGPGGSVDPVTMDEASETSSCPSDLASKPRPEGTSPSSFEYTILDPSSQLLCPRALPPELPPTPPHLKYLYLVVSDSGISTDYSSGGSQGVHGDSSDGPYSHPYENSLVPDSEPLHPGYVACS
Text: To generate Tie1-EpoR expressing Ba/F3 cells for the bioassay, Ba/F3 pre-B cells were stably transfected with a nucleic acid that expresses chimeric receptor containing the extracellular domain of human Tie1 fused with the transmembrane and cytoplasmic domains of the mouse erythropoietin receptor. The nucleic acid used was a Tie1-EpoR chimeric cDNA in a pEF-BOS expression vector. The nucleic acid encoding the chimeric receptor was constructed by cloning the PCR amplified extracellular part of human Tie1 (bp 37-2316 of X60975) as EcoRI-BglII fragment into mEpoR-pcDNA vector. The cDNA encoding for the chimeric receptor consisting of the extracellular part of Tie1 fused with the transmembrane and intracellular domains of EpoR was subcloned into the pEF-BOS expression vector. Vector was linearized and co-transfected into Ba/F3 cells with pcDNA3.1(+) Zeo vector (Invitrogen). Stable cell pools were generated by selection with 250 μg/ml Zeocin. The expression of Tie1/EpoR fusion protein in several clones was analyzed by Western blotting with an antibody against EpoR.
To perform the assays, Ba/F3 cells expressing the Tie 1-EpoR chimera were split in 96-well microtiter plates at 50 000 cells/well in the presence of the indicated concentrations of anti-Tie1 antibodies. As controls, Zeocin resistant pools not expressing the Tie1-EpoR were used. After 48 h, the viability of the cells was determined by adding MTT (3-(4,5-dimethylthiazol-2-yl)-2,5-diphenyl tetrazolium bromide (Sigma), 0.5 mg/ml), followed by further 2 h of culture, addition of an equal volume of cell lysis solution (10% SDS, 10 mM HCl) and incubation overnight at 37° C. Absorbance was measured at 540 nm.
Although no ligand for Tie1 has been identified, we used the following efficient screening method for Tie1-binding proteins. Interleukin-3 dependent pre-B-lymphocyte (Ba/F3) cells were transfected with a construct that expresses a Tie1-EpoR fusion protein. Since Ba/F3 cells are IL-3 dependent, they die unless IL-3 is provided. However, Tie-EpoR receptor expressing Ba/F3 cells can survive and proliferate if the medium contains a Tie1-binding protein, either a natural ligand or an artificial mimetic. Cell survival can be quantitated, e.g., by colorimetric MTT-assay, which measures mitochondrial activity.

Mouse Tie 1-Fc = biological target: T2, Mouse Tie 1-Fc (Mus musculus, UniProt Q06806); assay: BIAcore, E3 Fabs on mouse Tie1-Fc; format: binding; details: E3 Fab over biotinylated mouse Tie-1 Fc on streptavidin chip; 1:1 model
T2 sequence (Q06806 23-755 limits assumed): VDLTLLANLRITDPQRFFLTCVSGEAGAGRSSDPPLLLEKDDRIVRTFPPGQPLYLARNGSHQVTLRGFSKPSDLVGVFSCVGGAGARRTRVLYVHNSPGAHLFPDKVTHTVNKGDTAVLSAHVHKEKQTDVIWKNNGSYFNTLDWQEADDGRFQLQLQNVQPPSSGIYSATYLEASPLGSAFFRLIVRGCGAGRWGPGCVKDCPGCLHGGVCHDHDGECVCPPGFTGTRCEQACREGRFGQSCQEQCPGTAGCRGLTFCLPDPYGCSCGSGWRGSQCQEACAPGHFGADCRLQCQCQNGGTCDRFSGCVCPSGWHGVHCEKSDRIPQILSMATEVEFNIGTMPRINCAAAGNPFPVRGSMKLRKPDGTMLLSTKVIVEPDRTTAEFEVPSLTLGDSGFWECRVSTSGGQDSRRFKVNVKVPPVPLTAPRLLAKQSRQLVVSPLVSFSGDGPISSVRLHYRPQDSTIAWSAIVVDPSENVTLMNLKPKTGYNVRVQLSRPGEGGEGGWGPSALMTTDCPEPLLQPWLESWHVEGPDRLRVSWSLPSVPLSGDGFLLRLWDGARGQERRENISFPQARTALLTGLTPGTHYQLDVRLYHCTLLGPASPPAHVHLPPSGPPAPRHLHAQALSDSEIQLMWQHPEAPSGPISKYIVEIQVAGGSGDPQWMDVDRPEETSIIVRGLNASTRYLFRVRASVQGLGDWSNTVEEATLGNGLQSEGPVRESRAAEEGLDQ
Procedure: Mouse Tie 1-Fc antigen (0.5 mg/ml stock) was biotinylated using established procedures and after dilution 1/100 fold in HBS this was then used for capturing to a streptavidin chip. This was coated to a resonance value of 740RU. All analysis was performed in HBS buffer. The parental Fab E3 0.587 mg/ml (11740 nM) was diluted 1/587 in HBS+BSA to obtain a stock of 20 nM and the germlined Fab E3 0.025 mg/ml (500 nM) was diluted 1/25 in HBS+BSA to obtain a stock of 20 nM. Serial dilutions were made of each Fab preparation to obtain 10 nM, 5 nM, 2.5 nM, and 1.25 nM. For the association phase samples were injected at 30 μl/min for 4 minutes using kinject program. This was followed by a 10 minutes dissociation phase, any remaining sample was stripped from the Tie-1 Fc surface at a flow of 50 μl/min with a single injection of 50 mM NaOH+1 M NaCl for 18 seconds. All samples were run and analyzed in duplicate.
Sensorgrams were analyzed using the simultaneous ka/kd fitting program with 1:1 model in the BIAEVALUATION™ software 3.1.

[2] = biological target: T3, recombinant human Tie1-Fc (Homo sapiens, UniProt P35590); assay: BIAcore, parental and germlined E3b Fabs on human Tie-1/Fc; format: binding; details: E3 Fab over human Tie-1/Fc coated on CM5 chip; 1:1 model
T3 construct: selected against the Tie1 extracellular domain fused to human Fc or to a histidine purification tag
T3 sequence (P35590 22-759 limits assumed): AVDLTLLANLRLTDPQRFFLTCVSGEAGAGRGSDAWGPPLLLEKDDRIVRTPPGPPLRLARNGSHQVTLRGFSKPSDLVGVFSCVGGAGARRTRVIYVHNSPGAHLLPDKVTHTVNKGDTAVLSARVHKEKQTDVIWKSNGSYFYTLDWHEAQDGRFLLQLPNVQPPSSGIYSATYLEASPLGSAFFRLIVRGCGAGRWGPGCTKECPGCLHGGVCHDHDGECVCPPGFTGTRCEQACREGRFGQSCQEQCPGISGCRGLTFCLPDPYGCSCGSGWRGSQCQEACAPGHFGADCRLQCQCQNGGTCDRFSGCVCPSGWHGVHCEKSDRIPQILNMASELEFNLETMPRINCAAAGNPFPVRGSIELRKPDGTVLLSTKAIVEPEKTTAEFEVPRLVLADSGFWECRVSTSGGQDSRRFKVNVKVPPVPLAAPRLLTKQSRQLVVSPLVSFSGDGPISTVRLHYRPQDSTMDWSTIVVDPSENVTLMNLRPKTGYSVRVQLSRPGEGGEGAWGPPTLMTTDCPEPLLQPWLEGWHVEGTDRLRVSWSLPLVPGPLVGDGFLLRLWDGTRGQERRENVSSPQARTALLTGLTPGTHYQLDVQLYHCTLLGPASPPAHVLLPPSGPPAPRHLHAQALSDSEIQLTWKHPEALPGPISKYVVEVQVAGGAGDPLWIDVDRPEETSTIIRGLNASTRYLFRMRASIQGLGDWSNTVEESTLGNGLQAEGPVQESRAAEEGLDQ
Procedure: Recombinant human Tie-1/Fc was coated on a CM5 chip. The surface of the chip was first activated with a 7-minute pulse of 0.05 M NHS/0.2 M EDC, then Tie-1/Fc (2 μg/ml in 10 mM sodium acetate, pH 4.0) was run over the chip surface until 750 RUs were coated on the surface. All flow cells were subsequently deactivated with a 7-minute pulse of 1 M ethanolamine hydrochloride, pH 8.5. All further experiments were performed in HBS buffer.
The parental and the germlined E3b Fabs were prepared. A series of dilution (50, 25, 12.5, 6.25 and 3.125 nM) was prepared in HBS buffer. Samples were injected at 30 μl/min for 5.3 minutes using the KINJECT™ program. This was followed by a 10-minute dissociation phase, and the remaining Fab was stripped from the surface with a single 18-sec injection of 50 mM NaOH/1 M NaCl.
Sensorgrams were analyzed using the simultaneous ka/kd fitting program from the BIAEVALUATION™ software 3.1 assuming a 1:1 model.

Tie1, sequence (P35590 22-1138): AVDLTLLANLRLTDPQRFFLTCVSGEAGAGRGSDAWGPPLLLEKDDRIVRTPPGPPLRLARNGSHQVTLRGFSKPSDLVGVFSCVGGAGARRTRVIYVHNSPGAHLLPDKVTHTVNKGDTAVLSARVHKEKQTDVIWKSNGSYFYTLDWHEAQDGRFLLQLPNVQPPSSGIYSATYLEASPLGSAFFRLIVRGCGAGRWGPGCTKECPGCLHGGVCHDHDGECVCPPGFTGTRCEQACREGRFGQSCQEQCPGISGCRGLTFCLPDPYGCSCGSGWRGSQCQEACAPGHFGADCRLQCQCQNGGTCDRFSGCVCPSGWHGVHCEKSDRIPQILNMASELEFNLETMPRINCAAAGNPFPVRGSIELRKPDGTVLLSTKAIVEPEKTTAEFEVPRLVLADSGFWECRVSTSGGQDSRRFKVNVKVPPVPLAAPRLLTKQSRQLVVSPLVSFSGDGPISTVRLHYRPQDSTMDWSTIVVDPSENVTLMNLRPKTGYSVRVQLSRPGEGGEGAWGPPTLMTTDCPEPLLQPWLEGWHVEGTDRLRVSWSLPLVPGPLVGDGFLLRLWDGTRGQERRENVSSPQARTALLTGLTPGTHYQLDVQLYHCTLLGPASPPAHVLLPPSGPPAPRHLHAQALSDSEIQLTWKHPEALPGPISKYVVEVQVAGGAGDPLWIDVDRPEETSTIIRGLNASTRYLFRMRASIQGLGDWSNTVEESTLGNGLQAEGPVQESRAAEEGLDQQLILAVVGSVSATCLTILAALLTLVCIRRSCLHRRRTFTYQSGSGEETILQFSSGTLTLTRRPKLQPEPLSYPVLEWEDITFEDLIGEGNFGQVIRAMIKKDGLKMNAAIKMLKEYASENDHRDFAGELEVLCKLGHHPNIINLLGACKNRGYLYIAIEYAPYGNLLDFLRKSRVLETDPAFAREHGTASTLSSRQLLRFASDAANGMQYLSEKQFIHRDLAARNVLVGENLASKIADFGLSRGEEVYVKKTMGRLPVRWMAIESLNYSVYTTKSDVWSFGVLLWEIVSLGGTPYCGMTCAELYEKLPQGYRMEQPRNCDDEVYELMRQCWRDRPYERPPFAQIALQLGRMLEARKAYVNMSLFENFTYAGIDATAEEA

B1: P-B1: anti-Tie1 antibody; VH SEQ ID NO:20, VL SEQ ID NO:22 (antibody, V domains shown)
VH: EVQLLESGGGLVQPGGSLRLSCAASGFTFSRYPMVWVRQAPGKGLEWVSVISPSGGQTFYADSVKGRFTISRDNSKNTLYLQMNSLRAEDTAVYYCARGVLTTAFDIWGQGTMVTVSSASTKGPSVFPLAPSSKAPLGAQRPWAAWSR
VL: QDIQMTQSPSSLSASVGDRVTITCRASQNINSYLNWYQQKPGQAPKLLIYAASNLETAVPSRFSGSGSGTDFTLTISSLQPEDFATYYCQQFNTYPLTFGGG
modifications: Synthetically generated peptide
With B1 the “IF: Tie1-transfected” value (Tie1) was “weak” and the “effect on the survival effect of E3 IgG in Tie1-EpoR Ba/F3 assay” value [1] was “inhibited the viability effect of E3 IgG to some extent”.

B2: P-F4: anti-Tie1 antibody; VH SEQ ID NO:48, VL SEQ ID NO:50 (antibody, V domains shown)
VH: EVQLLESGGGLVQPGGSLRLSCAASGFTFSAYMMSWVRQAPGKGLEWVSSIYPSGGYTYYADSVKGRFTISRDNSKNTLYLQMNSLRAEDTAVYYCARGLRGGPDYWGQGTLVTVSSASTKGPSVFPLAPSSKSTSGGTAALG
VL: QDIQMTQSPSTLSAYVGDSVTITCRASQSVRRSLAWYQQRPGKAPKSLIYKASTLETGVPPRFSGSGSGTEFTLTISSLQPEDSAIYYCQQYGSFPLTFGGG
modifications: Synthetically generated peptide
With B2 the “IF: Tie1-transfected” value (Tie1) was “cross”.

B3: E3 Fab parental (antibody, V domains shown)
VH: EVQLLESGGGLVQPGGSLRLSCAASGFTFSMYGMVWVRQAPGKGLEWVSVISPSGGNTGYADSVKGRFTISRDNSKNTLYLQVNSLRAEDTAVYYCARAPRGYSYGYYYWGQGTLVTVSSASTKGPSVFPLAPSSKSTSGG
VL: DIQMTQSPLSLSASVGDRVTITCRASQGIGHYLAWYQQKPGKVPKLLIYTASTLQSGVPSRFSGSGSGTDFTLTINSLQPEDVATYYCQQFNSYPHTFGQGTRLDIK
For B3, the ka (Mouse Tie 1-Fc) was 246000 M⁻¹ s⁻¹ and the kd (Mouse Tie 1-Fc) was 0.00095 s⁻¹.

B4: E3 Fab Parental (antibody, V domains shown)
VH: B3 VH
VL: B3 VL
B4 showed a ka [2] of 88100 M⁻¹ s⁻¹ and a kd [2] of 0.00105 s⁻¹.
